Tests used:
[1] = test system: Zif268 finger 3 Asp2Ala D2A in finger 3 (helix position 2); details: phage ELISA; PBS, 50 uM ZnCl2, 20 C
[2] = test system: F2-Arg finger 3 Asp2Ala D2A in finger 3 (helix position 2) (Artificial Sequence); details: phage ELISA; PBS, 50 uM ZnCl2, 20 C

Row | Sequence | binding signal (fold lower affinity than wild type) [1] | binding signal (fold lower affinity than parent F2-Arg) [2]
1 | GCGTGGGCG (double strand) [Zif268 consensus site] | 4 | –
2 | GCGGTGGCG (double strand) [F2-Arg consensus site] | – | 4

Reference: US20040253623
